Common to all, as to test: ITC; secretagogin construct in the cell (10-100 µM), partner in the syringe (80-1500 µM); 25 mM HEPES pH 8.0, 150 mM NaCl, 2 mM CaCl2; 20 °C; MicroCal iTC200; single-site binding model
Assay [1] has as its target mouse secretagogin (mouse) (UniProt Q91WD9).
Assay [2] deals with mouse secretagogin R198A (mouse) (UniProt Q91WD9).
In assay [3] the target is mouse secretagogin M229E (mouse) (UniProt Q91WD9).
The target in assay [4] is mouse secretagogin L270A (mouse) (UniProt Q91WD9).
Assay [5] deals with mouse secretagogin V233A (mouse) (UniProt Q91WD9).
The target in assay [6] is mouse secretagogin M229A (mouse) (UniProt Q91WD9).
Chain of mouse secretagogin M229A (mouse) (Q91WD9 whole entry M229A): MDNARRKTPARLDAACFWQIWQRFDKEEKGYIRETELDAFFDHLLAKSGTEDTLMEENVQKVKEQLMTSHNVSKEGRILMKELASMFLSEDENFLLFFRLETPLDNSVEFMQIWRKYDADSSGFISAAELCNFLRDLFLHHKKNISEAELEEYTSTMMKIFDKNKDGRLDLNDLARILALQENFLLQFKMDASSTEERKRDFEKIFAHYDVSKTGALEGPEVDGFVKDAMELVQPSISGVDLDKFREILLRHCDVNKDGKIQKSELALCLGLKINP

Chain of mouse secretagogin (mouse) (Q91WD9 whole entry): as the sequence (Q91WD9 whole entry M229A) above, with A229M counted along it
Chain of mouse secretagogin V233A (mouse) (Q91WD9 whole entry V233A): as the sequence (Q91WD9 whole entry M229A) above, with A229M, V233A counted along it
Chain of mouse secretagogin M229E (mouse) (Q91WD9 whole entry M229E): as the sequence (Q91WD9 whole entry M229A) above, with A229E counted along it
Chain of mouse secretagogin R198A (mouse) (Q91WD9 whole entry R198A): as the sequence (Q91WD9 whole entry M229A) above, with R198A, A229M counted along it
Chain of mouse secretagogin L270A (mouse) (Q91WD9 whole entry L270A): as the sequence (Q91WD9 whole entry M229A) above, with A229M, L270A counted along it

For orientation: Kd means the equilibrium constant for the complex coming apart. As to “Ha helix of the Habc domain of mouse syntaxin-4, His6-tagged (from UniProt P70452 1-298) (domain or fragment)”, in assay [1], the Kd came to 6.67 µM.
Same read-out and setting: to “Habc domain of mouse syntaxin-4, His6-tagged (from UniProt P70452 1-298) (domain or fragment)” belongs 14.1 µM.
Take “Hb helix of the Habc domain of mouse syntaxin-4, His6-tagged (domain or fragment)”: the dissociation constant Kd in assay [2] was 0.808 µM; in assay [3], 5.21 µM; in assay [4] it was 16.2 µM; in assay [5], 0.125 µM; in assay [6], 1.62 µM.

Source of the values: paper PMC11032447.
